Data reported in patent US10864252B2, “Anti-SSX-2 T cell receptors and related materials and methods of use” (The United States of America, as represented by the …, priority 2010, dated 2020).

Legend:
MCF7 = assay: IFN-γ release, co-culture with MCF7; format: cell-based; conditions: co-cultured with MCF7
Text: (§1) SSX-2 TCR-transduced PBLs were co-cultured with various tumor cell lines. […] FIGS. 4A and 4B, FIG. 11, and Tables 3 and 4 show additional results of PBLs from human donors that were transduced with the SSX-2 TCR of Example 2 when these PBLs were co-cultured with various tumor cells.

[1] = target: T1, SSX-2: 41-49 (KASEKIFYV) peptide (Homo sapiens, UniProt Q16385); assay: IFN-γ release, co-culture with T2 cells pulsed with SSX-2: 41-49 peptide; format: cell-based
T1 construct: host or cells: T2 cells (peptide-pulsed)
Text: SSX-2 TCR-transduced PBLs were co-cultured with T2 cells from two human donors, where the T2 cells were pulsed with varying concentrations of the SSX-2: 41-49 (KASEKIFYV) peptide. FIGS. 1A and 1B show the resulting interferon-γ levels (pg/ml) measured. […] The differences between FIGS. 1A and 1B may be due to donor variability.
PBLs that were untransduced (UT) or transduced with a vector comprising SEQ ID NO: 27 (SSX-2 TCR), SEQ ID NO: 29 (codon-optimized SSX-2 TCR), or SEQ ID NO: 30 (codon-optimized SSX-2 TCR including mouse constant region) were co-cultured with T2 cells that were pulsed with an SSX-2 were pulsed with varying concentrations of the SSX-2: 41-49 (KASEKIFYV) (SEQ ID NO: 1) peptide.

938 mel = assay: IFN-γ release, co-culture with 938; format: cell-based; conditions: for IFN-γ: co-cultured with 938; for interferon-γ levels: co-cultured with 938 mel
Text: (§2) SSX-2 TCR-transduced PBLs were co-cultured with various tumor cell lines. […] FIGS. 4A and 4B, FIG. 11, and Tables 3 and 4 show additional results of PBLs from human donors that were transduced with the SSX-2 TCR of Example 2 when these PBLs were co-cultured with various tumor cells. PBLs that were untransduced (UT) or transduced with a vector comprising SEQ ID NO: 27 (SSX-2 TCR), SEQ ID NO: 29 (codon-optimized SSX-2 TCR), or SEQ ID NO: 30 (codon-optimized SSX-2 TCR including mouse constant region) were co-cultured with various tumor cell lines. Tables 5 and 6 show the resulting interferon-γ levels (pg/ml) measured with respect to PBL from two different donors.

SKOV3 Ovarian = assay: IFN-γ release, co-culture with SKOV3 ovarian; format: cell-based; conditions: co-cultured with SKOV3 (Ovarian)
Text: as §2

SSX-2 = assay: Tetramer binding of transduced PBL; conditions: human donor-derived PBL; CD4 and CD8 cells
COS-A2-SSX2 cells = assay: CD137 (4-1BB) upregulation after co-culture with COS-A2-SSX2 cells; format: cell-based; conditions: FACS after co-culture with COS-A2-SSX2 cells
SSX-1 to SSX-10 peptides = assay: Co-culture with T2 cells pulsed with SSX family peptides; format: cell-based; conditions: peptide-pulsed T2 cells; FIG. 5
Experimental: The peptides used for pulsing were: SSX-1 (KYSEKISYV, SEQ ID NO: 32) (-♦-); SSX-2 (KASEKIFYV, SEQ ID NO: 2) (▪); SSX-3 (KVSEKIVYV, SEQ ID NO: 8) (▪); SSX-4 (KSSEKIVYV, SEQ ID NO: 9) (X); SSX-5 (KASEKIIYV, SEQ ID NO: 10) ( ? ); SSX-6 (KFSEKISCV, SEQ ID NO: 33) (•); SSX-7 (KSLEKISYV, SEQ ID NO: 34) (|); SSX-8 KYSEKISYV, SEQ ID NO: 32) (-); SSX-9 (KSSEKIIYV, SEQ ID NO: 11) (—); and SSX-10 (KASEKILYV, SEQ ID NO: 12) (--♦--).
Co-culture assays were performed with PBLs transduced with the SSX-2 TCR of Example 2 and peptide-pulsed T2 cells.

[2] = test system: SSX2+/HLA-A2+ target cells; assay: Proliferation ([3H]-thymidine) on co-culture with tumor cells; format: cell-based; conditions: 1300 mel, 624 mel, 888 mel, SK mel 37 or COS-A2-SSX-2 cells; FIGS. 9A-9E
Text: In another experiment, PBLs transduced as described in this example were co-cultured with 1300 mel cells, 624 mel cells, 888 mel cells, SK mel 37 cells, or COS-A2-SSX-2 cells.

[3] = IFN-γ release, transduced PBL without target cells (medium / T cell alone); format: cell-based, human; conditions: for IFN-γ: MEDIUM, no target cells; for interferon-γ levels: T cell alone
Text: as §2

SKMEL 23 = assay: IFN-γ release, co-culture with SKMEL 23; format: cell-based; conditions: co-cultured with SKMEL 23
Text: as §1

293-A2 = assay: IFN-γ release, co-culture with 293-A2; format: cell-based; conditions: co-cultured with 293-A2
Text: as §2

293-A2 SSX2 = assay: IFN-γ release, co-culture with 293-A2 SSX2; format: cell-based; conditions: co-cultured with 293-A2 SSX2
Text: as §2

OVCAR3 = assay: IFN-γ release, co-culture with OVCAR3; format: cell-based; conditions: co-cultured with OVCAR3
Text: as §1

COS-A2 SSX2 = assay: IFN-γ release, co-culture with COS-A2 SSX2; format: cell-based; conditions: co-cultured with COS-A2 SSX2
Text: as §2

SK MEL37 = assay: IFN-γ release, co-culture with SK MEL37 melanoma; format: cell-based; conditions: co-cultured with SK MEL37 (Melanoma)
Text: as §2

H82 = assay: IFN-γ release, co-culture with H82; format: cell-based; conditions: co-cultured with H82
Text: as §1

[4] = test system: SSX-2+/HLA-A2+ target cells; assay: Percent lysis of target cells; format: cell-based; conditions: FIGS. 7A-D and 8A-D, various E:T ratios
COS-A2 = assay: IFN-γ release, TCR-transduced PBL co-cultured with COS-A2; format: cell-based; conditions: for IFN-γ: human donor PBL co-cultured with COS-A2; for interferon-γ levels: co-cultured with Cos-A2
Text: as §2

624 mel = assay: IFN-γ release, co-culture with 624 melanoma; format: cell-based; conditions: co-cultured with 624 (Melanoma)
Text: as §2

B1: SSX2-TCR-WT: HLA-A2 restricted anti-SSX-2 TCR alpha and beta chains encoded by SEQ ID NO: 27, tested as transduced human PBLs (protein)
chain: MSLSSLLKVVTASLWLGPGIAQKITQTQPGMFVQEKEAVTLDCTYDTSDPSYGLFWYKQPSSGEMIFLIYQGSYDQQNATEGRYSLNFQKARKSANLVISASQLGDSAMYFCAMTSGFGNEKLTFGTGTRLTIIPNIQNPDPAVYQLRDSKSSDKSVCLFTDFDSQTNVSQSKDSDVYITDKTVLDMRSMDFKSNSAVAWSNKSDFACANAFNNSIIPEDTFFPSPESSCDVKLVEKSFETDTNLNFQNLSVIGFRILLLKVAGFNLLMTLRLWSSRAKRSGSGATNFSLLKQAGDVEENPGPMGPGLLHWMALCLLGTGHGDAMVIQNPRYQVTQFGKPVTLSCSQTLNHNVMYWYQQKSSQAPKLLFHYYDKDFNNEADTPDNFQSRRPNTSFCFLDIRSPGLGDAAMYLCATSRGQGGQPQHFGDGTRLSILEDLNKVFPPEVAVFEPSEAEISHTQKATLVCLATGFFPDHVELSWWVNGKEVHSGVSTDPQPLKEQPALNDSRYCLSSRLRVSATFWQNPRNHFRCQVQFYGLSENDEWTQDRAKPVTQIVSAEAWGRADCGFTSVSYQQGVLSATILYEILLGKATLYAVLVSALVLMAMVKRKDF
In the case of B1, the IFN-γ (MCF7; Table 3) is reported as 0 pg/mL, the IFN-γ (MCF7; Table 4) is reported as 3 pg/mL and the “recognition of SSX-2: 41-49 peptide (IFN-γ)” value ([1]; FIG. 10) is reported as “recognize SSX-2: 41-49 peptide”. For the same molecule, the “lowest SSX-2: 41-49 peptide concentration recognized (IFN-γ)” value ([1]; T2 cells from two human donors pulsed with varying peptide concentrations, FIGS. 1A, 1B) was at most 0.01 ng/mL, the IFN-γ (938 mel; Table 3) was 0 pg/mL and the IFN-γ (938 mel; Table 4) was 0 pg/mL. The interferon-γ levels (938 mel; Table 5 donor) was 1239 pg/mL, the interferon-γ levels (938 mel; Table 6 donor) was 1451 pg/mL and the IFN-γ (SKOV3 Ovarian; Table 3) was 663 pg/mL. The IFN-γ (SKOV3 Ovarian; Table 4) was 610 pg/mL, the tetramer binding (SSX-2) was “tetramer binding” and the “activation marker CD137 (4-1BB)” value (COS-A2-SSX2 cells) was “upregulated”. The “reactivity with SSX family peptides” value (SSX-1 to SSX-10 peptides) was “most reactive with the peptide of SSX-2 and also recognizes the peptides of SSX-3, -4, -5, -9, and -10 over the other SSX peptides”, the “proliferation ([3H]-thymidine incorporation)” value [2] was “proliferate in response to co-culture with SSX2+/HLA-A2+ target cells” and the IFN-γ ([3]; Table 3) was 0 pg/mL. It also gave an IFN-γ ([3]; Table 4) of 0 pg/mL, an interferon-γ levels ([3]; Table 5 donor) of 165 pg/mL and an interferon-γ levels ([3]; Table 6 donor) of 322 pg/mL. For the same molecule, the IFN-γ (SKMEL 23; Table 3) was 0 pg/mL, the IFN-γ (SKMEL 23; Table 4) was 0 pg/mL and the IFN-γ (293-A2; Table 3) was 173 pg/mL. The IFN-γ (293-A2; Table 4) was 144 pg/mL, the interferon-γ levels (293-A2; Table 5 donor) was 582 pg/mL and the interferon-γ levels (293-A2; Table 6 donor) was 1520 pg/mL. The IFN-γ (293-A2 SSX2; Table 3) was 33913 pg/mL, the IFN-γ (293-A2 SSX2; Table 4) was 20595 pg/mL and the IFN-γ (OVCAR3; Table 3) was 0 pg/mL. For the same molecule, the IFN-γ (OVCAR3; Table 4) was 21 pg/mL, the IFN-γ (COS-A2 SSX2; Table 3) was 36070 pg/mL and the IFN-γ (COS-A2 SSX2; Table 4) was 56820 pg/mL. The IFN-γ (SK MEL37; Table 3) was 10000 pg/mL, the IFN-γ (SK MEL37; Table 4) was 9720 pg/mL and the IFN-γ (H82; Table 3) was 141 pg/mL. For the same molecule, the IFN-γ (H82; Table 4) was 100 pg/mL, the “lytic activity (percent lysis)” value [4] was “specific lytic activity against SSX-2^+/HLA-A2^+ target cells” and the IFN-γ (COS-A2; Table 3) was 297 pg/mL. The IFN-γ (COS-A2; Table 4) was 180 pg/mL, the interferon-γ levels (COS-A2; Table 5 donor) was 2839 pg/mL and the interferon-γ levels (COS-A2; Table 6 donor) was 460 pg/mL. The IFN-γ (624 mel; Table 3) was 26515 pg/mL and the IFN-γ (624 mel; Table 4) was 21730 pg/mL.
